Changes are numbered by the printed parent chain.
B1: fusion protein of SEQ ID NO: 74 (designed binder)
chain: QDSTSDLIPAPPLSKVPLQQNFQDNQFQGKWYVVGLAGNAILREDKQPAKMFATIYELKEDKSYDVTSVRFEAKSCKYTIKTFVPGSQPGEFTAGYIKSAPGQTSTLVRVVSTNYNQHAMVFFKHVTQNREIFVITLYGRTKELTSELKENFIRFSKSLGLPENHIVFPVPIDQCIDGGGGGSGGGGSGGGGSQDSTSDLIPAPPLSKVPLQQNFQDNQFQGKWYVVGWAGNVKLREDKQPQKMSATIYELKEDKSYDVTEVVFEQKKCHYIIKTFVPGSQPGEFTAGDIKSPPGYTSSLVRVVSTNYNQHAMVFFKKVSQNREFFWITLYGRTKELTSELKENFIRFSKSLGLPENHIVFPVPIDQCIDG
notes: not shown: C-terminal His-tag
B2: fusion protein of SEQ ID NO: 76 (designed binder)
chain: B1 chain with Q242L
notes: not shown: C-terminal His-tag
B3: lipocalin mutein of SEQ ID NO: 17 (designed binder)
chain: QDSTSDLIPAPPLSKVPLQQNFQDNQFQGKWYVVGLAGNAILRTDKQPAKMFATIYELKEDKSYDVTSVRFEAKSCVYTSKTFVPGSQPGEFTAGNIKSAPGQTSTLVRVVSTNYNQHAMVFFKHVSQNREFFVITLYGRTKELTSELKENFIRFSKSLGLPENHIVFPVPIDQCIDG
notes: also called hNGAL mutein; not shown: C-terminal His-tag
B4: lipocalin mutein of SEQ ID NO: 20 (designed binder)
chain: B3 chain with T44E, V77S, S80I, F123A, H125A, S127Q, Q128L, F132H, V134F
notes: as for B3

Key:
[1] = biological target: T1, recombinant human CTGF protein (R&D Systems, SEQ ID NO: 79) (human, UniProt P29279 27-349); test: ELISA, coated human CTGF
T1 construct: Bought; also called human CTGF/CNN2; huCTGF
T1 sequence: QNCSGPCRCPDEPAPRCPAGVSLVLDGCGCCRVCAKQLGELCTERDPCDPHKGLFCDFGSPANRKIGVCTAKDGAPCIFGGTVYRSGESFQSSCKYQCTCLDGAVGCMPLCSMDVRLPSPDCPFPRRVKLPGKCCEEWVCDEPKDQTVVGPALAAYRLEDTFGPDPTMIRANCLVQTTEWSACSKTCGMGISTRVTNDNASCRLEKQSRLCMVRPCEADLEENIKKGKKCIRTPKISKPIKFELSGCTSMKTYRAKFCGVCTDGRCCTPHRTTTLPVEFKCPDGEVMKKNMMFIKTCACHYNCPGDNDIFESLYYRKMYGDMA
Method: (§1) Binding of fusion proteins was tested by an ELISA assay. In detail, a 384-well plate suitable for fluorescence measurements (Greiner FLUOTRAC™ 600, black flat bottom, high-binding) was coated with 20 μl of human CTGF (R&D Systems) at a concentration of 1 μg/ml in PBS over night at 4° C. After washing with PBS with 0.05% Tween 20, wells were blocked with 100 μl blocking buffer containing 0.1% Tween 20 and 2% BSA (PBS-T/BSA) for 1 h at room temperature. 20 μl of serially diluted muteins were incubated in PBS-T/BSA for 1 h at room temperature (RT).
(§2) The residual supernatants were discarded and 20 μl HRP-labeled anti-NGAL or anti-His-Tag antibody was added at a predetermined optimal concentration in PBS-T/BSA and incubated for 1 h at RT. After washing, 20 μl fluorogenic HRP substrate (QuantaBlu, Thermo) was added to each well, and the reaction was allowed to proceed for 2 to 60 minutes. The fluorescence intensity of every well on the plate was read using a fluorescence microplate reader (Tecan). Curve fitting was performed using GraphPad Prism 7 or 8 software.

huCYR61 = biological target: T2, huCYR61 (human, UniProt O00622 25-381, limits assumed); test: ELISA, coated CCN protein
T2 construct: also called human CYR61 (CCN1)
T2 sequence (looked up): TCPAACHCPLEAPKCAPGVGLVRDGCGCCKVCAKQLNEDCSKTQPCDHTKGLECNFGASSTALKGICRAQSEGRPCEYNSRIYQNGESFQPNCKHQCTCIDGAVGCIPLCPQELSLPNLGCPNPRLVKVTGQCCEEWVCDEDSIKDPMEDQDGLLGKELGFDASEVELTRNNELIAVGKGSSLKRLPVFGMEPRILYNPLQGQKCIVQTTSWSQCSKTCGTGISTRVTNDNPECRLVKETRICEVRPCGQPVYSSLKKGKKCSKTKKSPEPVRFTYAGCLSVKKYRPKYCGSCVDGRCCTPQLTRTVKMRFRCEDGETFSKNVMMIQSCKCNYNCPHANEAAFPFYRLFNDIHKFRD
Method: as §1, with “muteins to closely related” for “fusion”, “proteins of CTGF” for “proteins”, “or the other members of the CCN protein family” for “(R&D Systems)”, “muteins starting at 1000 nM” for “muteins”
as §2, with “anti-Strep-Tag” for “anti-His-Tag”, “When the signal for human CTGF approached saturation, the cross reactivity to the other proteins” for “Curve fitting”, “assessed.” for “performed using GraphPad Prism 7 or 8 software.”

huNOV = biological target: T3, huNOV (human, UniProt P48745 32-357, limits assumed); test: ELISA, coated CCN protein
T3 construct: also called human NOV (CCN3)
T3 sequence (looked up): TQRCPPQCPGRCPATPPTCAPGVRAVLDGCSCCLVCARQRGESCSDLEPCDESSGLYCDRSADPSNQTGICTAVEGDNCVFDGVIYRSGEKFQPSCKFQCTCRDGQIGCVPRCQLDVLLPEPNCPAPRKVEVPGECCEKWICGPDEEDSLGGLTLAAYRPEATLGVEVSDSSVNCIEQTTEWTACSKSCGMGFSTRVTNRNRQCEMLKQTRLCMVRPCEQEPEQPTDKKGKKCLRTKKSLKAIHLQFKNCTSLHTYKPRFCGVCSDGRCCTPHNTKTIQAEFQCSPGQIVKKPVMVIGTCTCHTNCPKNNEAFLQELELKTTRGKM
Method: as §1, with “muteins to closely related” for “fusion”, “proteins of CTGF” for “proteins”, “or the other members of the CCN protein family” for “(R&D Systems)”, “muteins starting at 1000 nM” for “muteins”
as §2, with “anti-Strep-Tag” for “anti-His-Tag”, “When the signal for human CTGF approached saturation, the cross reactivity to the other proteins” for “Curve fitting”, “assessed.” for “performed using GraphPad Prism 7 or 8 software.”

huWISP-1 = biological target: T4, huWISP-1 (human, UniProt O95388 23-367, limits assumed); test: ELISA, coated CCN protein
T4 construct: also called human WISP-1 (CCN4)
T4 sequence (looked up): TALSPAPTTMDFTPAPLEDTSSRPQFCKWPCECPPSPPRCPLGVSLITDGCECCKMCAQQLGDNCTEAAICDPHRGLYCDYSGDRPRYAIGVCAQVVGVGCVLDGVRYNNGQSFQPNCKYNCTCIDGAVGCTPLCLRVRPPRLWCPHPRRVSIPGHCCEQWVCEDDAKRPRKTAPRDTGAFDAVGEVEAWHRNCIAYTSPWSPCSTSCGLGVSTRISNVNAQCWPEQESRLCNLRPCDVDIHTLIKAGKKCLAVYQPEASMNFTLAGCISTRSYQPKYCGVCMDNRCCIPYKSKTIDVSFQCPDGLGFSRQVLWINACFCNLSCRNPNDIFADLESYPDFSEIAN
Method: as §1, with “muteins to closely related” for “fusion”, “proteins of CTGF” for “proteins”, “or the other members of the CCN protein family” for “(R&D Systems)”, “muteins starting at 1000 nM” for “muteins”
as §2, with “anti-Strep-Tag” for “anti-His-Tag”, “When the signal for human CTGF approached saturation, the cross reactivity to the other proteins” for “Curve fitting”, “assessed.” for “performed using GraphPad Prism 7 or 8 software.”

huWISP-2 = biological target: T5, huWISP-2 (human, UniProt O76076 24-250, limits assumed); test: ELISA, coated CCN protein
T5 construct: also called human WISP-2 (CCN5)
T5 sequence (looked up): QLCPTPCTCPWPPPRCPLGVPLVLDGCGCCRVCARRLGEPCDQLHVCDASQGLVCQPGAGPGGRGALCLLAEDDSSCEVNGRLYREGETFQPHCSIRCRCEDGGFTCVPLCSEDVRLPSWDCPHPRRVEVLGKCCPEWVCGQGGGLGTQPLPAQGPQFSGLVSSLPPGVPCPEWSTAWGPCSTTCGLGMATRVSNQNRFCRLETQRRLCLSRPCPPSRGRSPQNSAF
Method: as §1, with “muteins to closely related” for “fusion”, “proteins of CTGF” for “proteins”, “or the other members of the CCN protein family” for “(R&D Systems)”, “muteins starting at 1000 nM” for “muteins”
as §2, with “anti-Strep-Tag” for “anti-His-Tag”, “When the signal for human CTGF approached saturation, the cross reactivity to the other proteins” for “Curve fitting”, “assessed.” for “performed using GraphPad Prism 7 or 8 software.”

huWISP-3 = biological target: T6, huWISP-3 (human, UniProt O95389 24-354, limits assumed); test: ELISA, coated CCN protein
T6 construct: also called human WISP-3 (CCN6)
T6 sequence (looked up): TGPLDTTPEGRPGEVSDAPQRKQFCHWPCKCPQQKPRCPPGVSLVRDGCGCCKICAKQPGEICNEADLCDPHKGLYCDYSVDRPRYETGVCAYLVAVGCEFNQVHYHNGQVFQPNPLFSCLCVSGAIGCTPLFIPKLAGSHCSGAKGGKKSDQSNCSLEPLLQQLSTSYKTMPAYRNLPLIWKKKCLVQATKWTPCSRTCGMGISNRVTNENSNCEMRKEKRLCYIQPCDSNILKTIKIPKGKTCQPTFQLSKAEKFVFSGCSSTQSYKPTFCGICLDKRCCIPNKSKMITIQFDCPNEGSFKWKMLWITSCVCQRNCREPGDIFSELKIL
Method: as §1, with “muteins to closely related” for “fusion”, “proteins of CTGF” for “proteins”, “or the other members of the CCN protein family” for “(R&D Systems)”, “muteins starting at 1000 nM” for “muteins”
as §2, with “anti-Strep-Tag” for “anti-His-Tag”, “When the signal for human CTGF approached saturation, the cross reactivity to the other proteins” for “Curve fitting”, “assessed.” for “performed using GraphPad Prism 7 or 8 software.”

[2] = biological target: T1, recombinant human CTGF protein (R&D …); test: HTRF, 1 nM biotinylated human CTGF
Method: Binding of some fusion proteins was tested by a Homogeneous Time Resolved Fluorescence (HTRF assay). In detail, 1 nM of biotinylated human CTGF (R&D Systems) was incubated for 1 h with a titration of some lipocalins starting at 5 nM in 384 Flat Bottom White Polystyrol microtiter plate (Greiner). Samples were diluted in PBS containing 0.1% Tween 20 and 2% BSA. As donor, Streptavidin-Terbium at a concentration of 0,006 μg/mL was used, the acceptor was 0.2 μg/mL anti-His-d2 (both CisBio). After another 1 h of incubation, the fluorescence intensity of the donor and acceptor on the plate was read using a fluorescence microplate reader M1000 (Tecan) with the standard settings recommended by CisBio. The calculated ratio of signals was used for the curve fitting performed in GraphPad Prism 7 software.

[3] = biological target: T7, recombinant human CTGF-Fc protein (Creative Biomart) (human); test: SPR (Biacore); B = binding without determination of kinetics constants
T7 construct: Bought; also called human CTGF with a human IgG1 Fc Tag
Method: The binding of exemplary lipocalin muteins to human (Creative Biomart), cynomolgus, rat (R&D Systems) and mouse CTGF (Abbexa) was determined by SPR using a Biacore instrument (Cytiva, formerly GE Healthcare). Some targets were fused to a human IgG1 Fc tag, and captured via the anti-human IgG antibody kit, others were directly immobilized.
For some measurements, human CTGF with a human IgG1 Fc Tag or rat or murine CTGF without a tag were directly immobilized to a CM5 Chip. The carboxyl groups on the chip were activated using 1-ethyl-3-(3-dimethylaminopropyl)-carbodiimide (EDC) and N-hydroxysuccinimide (NHS). […] Residual non-reacted NHS-esters were blocked by passing a solution of 1 M ethanolamine across the surface. The reference channel was activated/deactivated. For the capture setting, targets with an IgG Fc Tag at 0.25-2.5 μg/mL in HBS-EP+ buffer were captured by the anti-human IgG-Fc antibody at the chip surface for 180 s at a flow rate of 10 μL/min.
The binding assay was carried out with a contact time of 180 s, a dissociation time of 900-3600 s and a flow rate of 30 μL/min. All measurements were performed at 25° C. […] For the directly immobilized targets, the same regeneration conditions were used. Prior to the protein measurements, three startup cycles were performed for conditioning purposes.

Binder	EC50 [1] [nM]	binding result (huCYR61)	binding result (huNOV)	binding result (huWISP-1)	binding result (huWISP-2)	binding result (huWISP-3)	EC50 [2] [nM]	binding result [3]
B1	0.26	no binding (tested: dilutions starting at 1000 nM)	no binding (tested: dilutions starting at 1000 nM)	no binding (tested: dilutions starting at 1000 nM)	no binding (tested: dilutions starting at 1000 nM)	no binding (tested: dilutions starting at 1000 nM)	0.59	–
B2	0.24	no binding (tested: dilutions starting at 1000 nM)	no binding (tested: dilutions starting at 1000 nM)	no binding (tested: dilutions starting at 1000 nM)	no binding (tested: dilutions starting at 1000 nM)	no binding (tested: dilutions starting at 1000 nM)	0.62	–
B3	–	–	–	–	–	–	–	binds
B4	–	–	–	–	–	–	–	binds

— US20240228562A1 (Pieris, published 2024)
